From the supplement of paper PMC9170038

Tested on: MS2 coat protein
Test: apparent KD of MS2 coat protein; designed switch direction (-1 OFF switch, 1 ON switch): -1; higher = weaker reporter binding
Summary of the method: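 Designed RNA switches sharing common flanks were transcribed on Illumina chips by stalled E. coli RNA polymerase. They were titrated with SNAP-549-labelled MS2 coat protein, from 0.7 or 1.5 nM doubling to 3 µM, in Tris-HCl pH 7.5 buffer with KCl, MgCl2, BSA, DTT, tRNA and Tween-20. Titrations ran without input, with 200 uM small-molecule ligand, or with an oligonucleotide input. The apparent KD of each design is the median over its clusters, after curve-fitting of normalised cluster fluorescence.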

[1] = input ligand: microRNA oligo, concentration not stated
[2] = Eterna round: R95, input ligand: microRNA oligo, concentration not stated

Sequence | apparent KD of MS2 coat protein (input ligand: FMN 200 uM) [nM] | apparent KD of MS2 coat protein (input ligand: none) [nM] | apparent KD of MS2 coat protein [1] [nM] | apparent KD of MS2 coat protein [2] [nM]
GCCGUGUUAGGAUAUCGCUCGACGAAUAGUUGUCGGAGGAACGAGAAGGAACAUGAGGAUCACCCAUGUGUCAC [Eternabot (L1) Solution 33] (Eterna round: R97, puzzle: Exclusion 4) | 57.5 | 21.4 | – | –
GCCUCACUUGAGGAUCACCCAAGUCAGGAUAUCUACAAGCCGGCCAUACCGGCUUGCAAGAGAAGGGACUCUAA [Xemamaqu] (Eterna round: R97, puzzle: Exclusion 1) | 178 | 38.5 | – | –
GCCUCACUUGAGGAUCACCCAAGUCAGGAUAUUUGAAAGCAAGCCUAAAACACGCGUAAAAGAAGGGACUUGAA [Armare] (Eterna round: R97, puzzle: Exclusion 1) | 30.3 | 20.9 | – | –
GCCUUAUCCGUCAGGAUAUACAGCCGCUCCCUGUUGUAGAAGGGACAUGAGGAUCACCCAUGUACGUACCACCG [alecazam8] (Eterna round: R97, puzzle: Brourd's mod of Exclusion 4) | 28.1 | 29.2 | – | –
GCCUUAUCGGUCAGGAUAUACACCCGUCACUUGUUGUAGAAGGGACAUGAGGAUCACCCAUGUACAUUACAUUG [alecazam37] (Eterna round: R97, puzzle: Brourd's mod of Exclusion 4) | 31.3 | 26 | – | –
GCCUUGGGAGUCAGGAUAUACAAUAAAAUAAUUAAGUAGAAGGGACAUGAGGAUCACCCAUGUACAUUACAUCG [alecazam31] (Eterna round: R97, puzzle: Brourd's mod of Exclusion 4) | 39.5 | 25.7 | – | –
GCGACAGCGGUUAGGAUAUAUGUUAGGACGUAGAUAUAGAAGGAACAUGAGGAUCACCCAUGUUUAAAAUGGGA [Eternabot (L1) Solution 71] (Eterna round: R97, puzzle: Brourd's mod of Exclusion 4) | 69.5 | 71.9 | – | –
GCGCCAUCGUGAGAUGGCGUAUAAACAUGAGGAUCACCCAUGUAGGAUAUCGAUUGCUUUGCAGUCGAGAAGGGCAUUAUAAGU [JL ENG3 3.75] (Eterna round: R96, puzzle: Exclusion NG 3) | 29.2 | 28.4 | 19 | –
GCGGGAAAAGGAUAUGAGAGGUAAUACAUGAGGAUCACCCAUGUGAUAGACUCUGUGCUUUUAGAAGGUUUAUGUC [Eternabot (L1) Solution 19] (Eterna round: R97, puzzle: Exclusion 5) | 14.3 | 15.3 | – | –
GCGGUACAUGAGGAUCACCCAUGUCAGGAUAUCCGCUGUAACUUAAUAAAUAAGCGGUGGAGAAGGGACUUCGC [-18.24, -17.54 kcal, 30% A] (Eterna round: R97, puzzle: Exclusion 1) | 34.2 | 27.6 | – | –
GCGUACAGCCUAAGCAGUGACAUGAGGAUCACCCAUGUACGAACGUUUACCAAGCUUGUCUUAAUACCAUUAUAAAU [Eternabot (L1) Solution 20] (Eterna round: R97, puzzle: Sensor, turn-off variant 1) | 23.7 | 28.9 | – | –
GCGUAGUAUGUAGGAUAUCGGUCAGUUUCUGAUCGAGAAGGACAUGAGGAUCACCCAUGUAAAACGCCCGCUUUGUGGGUACGC [JL ENG1 3.59] (Eterna round: R96, puzzle: Exclusion NG 1) | 55.4 | 22.4 | 17.6 | –
GCGUAGUAUGUAGGAUAUCGGUCAGUUUCUGAUCGAGAAGGACAUGAGGAUCACCCAUGUAAAUUGCCCGCUUUGUGGGUACGC [JL ENG1 3.60] (Eterna round: R96, puzzle: Exclusion NG 1) | 59.3 | 22.5 | 19.1 | –
GCGUUCUGAGGAUAUACAUGAGGAUCACCCAUGUUGAGAAUUAUGUAUAAAAGAUUAUGUAGAAGGCAGAGUGC [JR_Ex3_Sub071] (Eterna round: R97, puzzle: Exclusion 3) | 140 | 716 | – | –
GCUACCAGAGUGAGGAUAUCGGAUGCGCAAGCACACGAGAAGGCACAUGAGGAUCACCCAUGUAUGGUAGCCGU [eternacac ex4r4 #9] (Eterna round: R97, puzzle: Brourd's mod of Exclusion 4) | 13.2 | 39.1 | – | –
GCUAUGACUGUGAGGAUAUGGACCGGGCUCUCGGAUUAGAAGGCACAUGAGGAUCACCCAUGUGAUCACGUACU [Eternabot (L2) Solution 87] (Eterna round: R97, puzzle: Brourd's mod of Exclusion 4) | 42.2 | 27.5 | – | –
GCUCAGAUGACAGGAUAUCACGCCUGGCAGAUGGGCGACAUGAGGAUCACCCAUGUCCAGCACGAUGAGAAGGGUUAUCGGGCG [Ririorti] (Eterna round: R96, puzzle: Exclusion NG 2) | 195 | 96.4 | 94.2 | –
GCUCAGUAAGGAUAUUGUUUAGGAGCUAUAGGCGUAGUUAACAAGAAGGUACAUGAGGAUCACCCAUGUCCAUC [Eternabot (L2) Solution 36] (Eterna round: R97, puzzle: Exclusion 4) | 17.7 | 15.1 | – | –
GCUCGUGGGCAAGGAUAUCCUACGCUGUUCUGGUUCGUGUCUGUCACAUGAGGAUCACCCAUGUGGGAGAAGGUGCACCAGGGU [Design 51] (Eterna round: R96, puzzle: Exclusion NG 2) | 10.8 | 14 | 9.67 | –
GCUGCAAGAGGAUAUACAUGAGGAUCACCCAUGUGAAAUUAUAGUGAGGAAAUGAAAAGUAGAAGGCUUGUAGA [Mod of Mat 15 - Jieux - Exclusion 3] (Eterna round: R97, puzzle: Exclusion 3) | 86.6 | 38.1 | – | –
GCUGCACAUGUAGGAUAUCUGCACGAUUAGUGCAGAGAAGGACAUGAGGAUCACCCAUGUAGAUCAGCAGCAAUUAAUUUAAUU [ENG1/6-A1] (Eterna round: R96, puzzle: Exclusion NG 1) | 232 | 400 | 241 | –
GCUGCGCGAGGAUAUGCGGUUCGCGCUGUGGCCCGUGGCGGACAUGAGGAUCACCCAUGUAGAAGGCGUGCGGG [Apr-15 SS2-58] (puzzle: Exclusion 2) | – | – | – | 10.3
GCUGCGCGAGGAUAUGCGGUUUGUGCUUUGGGCCCUGGCGUACAUGAGGAUCACCCAUGUAGAAGGCGUGUGGG [Apr-15 SS2-51] (puzzle: Exclusion 2) | – | – | – | 32.8
